{"source": "paper PMC4405707", "proteins": {"B1": {"name": "GluA2i: N385D (protein)", "parent chain": "MQKIMHISVLLSPVLWGLIFGVSSNSIQIGGLFPRGADQEYSAFRVGMVQFSTSEFRLTPHIDNLEVANSFAVTNAFCSQFSRGVYAIFGFYDKKSVNTITSFCGTLHVSFITPSFPTDGTHPFVIQMRPDLKGALLSLIEYYQWDKFAYLYDSDRGLSTLQAVLDSAAEKKWQVTAINVGNINNDKKDETYRSLFQDLELKKERRVILDCERDKVNDIVDQVITIGKHVKGYHYIIANLGFTDGDLLKIQFGGANVSGFQIVDYDDSLVSKFIERWSTLEEKEYPGAHTATIKYTSALTYDAVQVMTEAFRNLRKQRIEISRRGNAGDCLANPAVPWGQGVEIERALKQVQVEGLSGNIKFDQNGKRINYTINIMELKTNGPRKIGYWSEVDKMVVTLTELPSGNDTSGLENKTVVVTTILESPYVMMKKNHEMLEGNERYEGYCVDLAAEIAKHCGFKYKLTIVGDGKYGARDADTKIWNGMVGELVYGKADIAIAPLTITLVREEVIDFSKPFMSLGISIMIKKPQKSKPGVFSFLDPLAYEIWMCIVFAYIGVSVVLFLVSRFSPYEWHTEEFEDGRETQSSESTNEFGIFNSLWFSLGAFMQQGCDISPRSLSGRIVGGVWWFFTLIIISSYTANLAAFLTVERMVSPIESAEDLSKQTEIAYGTLDSGSTKEFFRRSKIAVFDKMWTYMRSAEPSVFVRTTAEGVARVRKSKGKYAYLLESTMNEYIEQRKPCDTMKVGGNLDSKGYGIATPKGSSLGTPVNLAVLKLSEQGVLDKLKNKWWYDKGECGAKDSGSKEKTSALSLSNVAGVFYILVGGLGLAMLVALIEFCYKSRAEAKRMKVAKNPQNINPSSSQNSQNFATYKEGYNVYGIESVKI"}, "B2": {"name": "GluA2i: N392Q (protein)", "parent chain": "B1 parent chain"}}, "key": {"[1]": {"test": "outside-out patch, 10 mM glutamate, τw,des", "settings": "glycan lost; control: GluA2i WT + γ-2"}, "[2]": {"test": "outside-out patch, steady state-to-peak ratio", "settings": "glycan lost; control: GluA2i WT + γ-2"}}, "data": [{"protein": "B1", "values": [{"measurement": "other: channel desensitisation kinetics", "setting": "[1]", "result": "no change"}, {"measurement": "other: steady-state channel current", "setting": "[2]", "result": "increases"}]}, {"protein": "B2", "values": [{"measurement": "other: channel desensitisation kinetics", "setting": "[1]", "result": "no change"}, {"measurement": "other: steady-state channel current", "setting": "[2]", "result": "increases"}]}]}
